Marks after values point to notes of the source that are not given here.
Columns and labels:
[1] = system: CHLA258 xenograft (Ewings); experiment: PPTP in vivo xenograft CHLA258; parameters: key to EFS activity notation (high, intermediate, indeterminate): high (!); intermediate (#); indeterminate (^)
Method: (§1) The PPTP includes a molecularly characterized in vitro panel of cell lines (n=27) and in vivo panel of xenografts (n=61) representing most of the common types of childhood solid tumors and childhood ALL (acute lymphoblastic leukemia). LCF/HCA anti-IGF1R antibody was tested against the PPTP in vitro panel at concentrations ranging from 0.01 nM to 100 nM; and was tested against the PPTP in vivo panel at a dose of 0.5 mg per mouse administered twice weekly for four weeks via intraperitoneal injection. Three measures of antitumor activity were used: 1) response criteria modeled after the clinical setting; 2) treated-to-control (T/C) tumor volume at day 21; and 3) a time to event (4-fold increase in tumor volume) measure based on the median EFS of treated and control lines (intermediate activity required EFS (event-free survival) T/C>2, and high activity additionally required a net reduction in median tumor volume at the end of the experiment).
(§2) Stage 1 testing involved testing an agent across the entire PPTP panel of childhood cancer xenograft lines at its maximum tolerated dose (MTD) or at a dose selected based on PK/PD (pharmacokinetic/pharmacodynamic) studies using adult preclinical models.
(§3) In vivo solid tumor testing: For each xenograft line, 10 mice bearing subcutaneous (SC) tumors initiated treatment when the tumors were between 0.2-0.5 cm^3 in volume. Two perpendicular tumor diameters were measured at once weekly intervals with digital vernier calipers. Assuming tumors to be spherical, volumes were calculated from the formula (π/6)×d3, where d represented the mean diameter.
(§4) Drug: LCF/HCA was dissolved in 20mM sodium acetate pH 5 buffer containing 150 mM sodium chloride, and administered intraperitoneally twice weekly for 4 consecutive weeks at a dose of 0.5 mg per animal. The antibody was provided to each testing site in coded vials for blinded testing according the PPTP's standard operating procedures.
(§5) Median Group Response: Each individual mouse in each treatment group was assigned a response score (see Tables above) and a median score for the treatment group was calculated and then each treatment group was assigned an overall response according to the table below.
(§6) Statistical Methods: Event-free survival (EFS) distributions of each treatment group were compared to the EFS distribution of the respective control group using the exact log rank test. P-values were 2-sided & were not adjusted for multiple comparisons given the exploratory nature of this study. P-values<0.05 were considered to be significant.

[2] = system: NB-SD xenograft (Neuroblastoma); experiment: PPTP in vivo xenograft NB-SD; parameters: key to EFS activity notation (high, intermediate, indeterminate): high (!); intermediate (#); indeterminate (^)
Method: as §1, §2, §3, §4, §5, §6

[3] = system: SCC15 human squamous cell carcinoma tumor cells; experiment: SCC15 squamous cell carcinoma xenograft in SCID mice; format: in vivo, mouse; conditions: 0.1 mg/injection ip two times per week, seven times starting on day 10
Method: Immune-deficient SCID mice (strain SCID) were inoculated with SCC15 human squamous cell carcinoma tumor cells in the right flank, subcutaneously, along with Matrigel (1:1 cells:gel). In these experiments, 5×10^6 cells/mouse in a 1:1 mix with regular matrigel were inoculated. The LCF/HCA anti-IGF1R antibody was inoculated intraperitoneally (ip) (0.1 mg/injection). Mice were dosed with the antibody two times per week, by intraperitoneal injection, seven times starting on day 10 with the last dose on day 31. Tumor size was measured with calipers and the data was entered into the labcat program. Mice were grouped with average size of 100 mm^3. Tumor size and body weight were measured twice weekly.

[4] = system: ALL-17 xenograft (ALL B-precursor); experiment: PPTP in vivo leukemia xenograft ALL-17; parameters: key to EFS activity notation (high, intermediate, indeterminate): high (!); intermediate (#); indeterminate (^); conditions: ALL-17 (ALL B-precursor) xenograft; 0.5 mg per mouse ip twice weekly for four weeks
Method: as §1, §2
In vivo acute lymphoblastic leukemia testing: For each xenograft line, 8 mice were inoculated with 3-5×10^6 mononuclear cells purified from the spleens of secondary recipient mice. Engraftment was monitored weekly by flow cytometry, and treatment was initiated when the proportion of human CD45+ cells in the peripheral blood reached 1%. The proportion of human CD45+ cells in the peripheral blood was monitored weekly throughout the course of treatment.
as §4, §5, §6

[5] = system: squamous cell carcinoma cell line SCC 25; experiment: Cell-Titer Glo proliferation assay, SCC25; format: cell-based; conditions: 0.000256-100 nM antibody, 96 hours
Method: Cell proliferation was assayed using a Cell-Titer Glo assay (Promega Corp.; Madison, Wis.). A cell-titer glo assay generates a “glow” luminescent signal in the presence of ATP from viable cells, which can be detected with a plate reader luminometer or CCD imaging device.
In this assay, squamous cell carcinoma cells, SCC9, SCC25 and SCC15, were trypsinized, counted and resuspended at 25,000 cells/ml in 10% HI-FBS RPMI containing NEAA, L-Glu, MEM Vitamins and PS. […] (2500 cells) were added to each well BD Falcon 96 well black, clear bottom TC treated plate. Cells were allowed to attach and spread overnight at 37° C. Then, 10% RPMI medium was replaced with […] 2% RPMI, containing the LCF/HCA antibody at the appropriate concentration, the following day. The anti-IGF1R antibody concentrations used in each experiment were 100 nM, 20 nM, 5 nM, 0.8 nM, 0.16 nM, 0.032 nM, 0.0064 nM, 0.00128 nM, and 0.000256 nM. All treatments were prepared in 2% RPMI at 20× concentration and serial diluted. Every test point was prepared in triplicate on separate assay plates. As mentioned above, cell proliferation was measured using the CellTiter-Glo Luminescent Cell Viability Assay (Promega) at 96 hours post treatment. Luminescence was detected on a Wallac 420 Plate Reader with stacker.

[6] = system: BT-46 xenograft (Medulloblastoma); experiment: PPTP in vivo xenograft BT-46; conditions: BT-46 (Medulloblastoma) xenograft, 0.5 mg per mouse ip twice weekly for four weeks
Method: as §1, §2, §3
(§7) Drug: LCF/HCA was dissolved in 20mM sodium acetate pH 5 buffer containing 150 mM sodium chloride, and administered intraperitoneally twice weekly for 4 consecutive weeks at a dose of 0.5 mg per animal. […]
(§8) Median Group Response: Each individual mouse in each treatment group was assigned a response score (see Tables above) and a median score for the treatment group was calculated and then each treatment group was assigned an overall response according to the table below. […]

[7] = system: Rh18 xenograft (EMB Rhabdomyosarcoma); experiment: PPTP in vivo xenograft Rh18
Method: as §1, §2, §3, §7, §8

[8] = system: KT-14 xenograft (Rhabdoid); experiment: PPTP in vivo xenograft KT-14; parameters: key to EFS activity notation (high, intermediate, indeterminate): high (!); intermediate (#); indeterminate (^); conditions: KT-14 (Rhabdoid) xenograft, 0.5 mg per mouse ip twice weekly for four weeks
Method: as §1, §2, §3, §4, §5, §6

[9] = 0.5 mg per mouse ip twice weekly for four weeks
[10] = day 21, 0.5 mg per mouse ip twice weekly for four weeks

B1: LCF/HCA: fully human anti-IGF1R antibody comprising the mature 19D12/15H12 light chain F (LCF) and mature heavy chain A (HCA) (antibody, V domains shown)
VH: EVQLVQSGGGLVHPGGSLRLSCAASGFTFSSFAMHWVRQAPGKGLEWISVIDTRGATYYADSVKGRFTISRDNAKNSLYLQMNSLRAEDMAVYYCARLGNFYYGMDVWGQGTTVTVSS
VL: EIVLTQVPDFQSVTPKEKVTITCRASQSIGSSLHWYQQKPDQSPKLLIKYASQSLSGVPSRFSGSGSGTDFTLTINSLEAEDAAAYYCHQSSRLPHTFGGGTKVEIKRT
EFS T/C [1, 9]: 4.2 | EFS activity notation (high, intermediate, indeterminate) [1, 9]: # | Median Final RTV [1, 9]: >4# | Overall Group Response [1, 9]: PD2 (1 < MS ≦ 3) | Tumor Volume T/C [1, 10]: 0.29 | EFS T/C [2, 9]: > 1.8 | EFS activity notation (high, intermediate, indeterminate) [2, 9]: ^ | Median Final RTV [2, 9]: 3.7^ | Overall Group Response [2, 9]: PD2 (1 < MS ≦ 3) | Tumor Volume T/C [2, 10]: 0.41 | tumor growth [3]: less than that observed in mice only receiving a control injection without the antibody | EFS T/C [4]: 3.1 | EFS activity notation (high, intermediate, indeterminate) [4]: # | Median Final RTV [4]: >25# | Overall Group Response [4]: PD2 (1 < MS ≦ 3) | proliferation of squamous cell carcinoma cell line [5]: inhibited | EFS T/C [6]: 1.2 | Median Final RTV [6]: >4 | Tumor Volume T/C ([6]; day 21): 0.69 | EFS T/C [7, 9]: 1 | Median Final RTV [7, 9]: >4 | Tumor Volume T/C [7, 10]: 0.74 | EFS T/C [8]: > 3.3 | EFS activity notation (high, intermediate, indeterminate) [8]: # | Median Final RTV [8]: 1.6# | Overall Group Response [8]: PD2 (1 < MS ≦ 3) | Tumor Volume T/C ([8]; day 21): 0.6

From patent US20110262525A1, “METHODS OF TREATMENT” (SCHERING CORPORATION, priority 2006, published 2011)
